From the DeepSol protein solubility set

Experiment: soluble on expression in E. coli; label from the status in PepcDB or PDB records

| Sequence | soluble on expression in E. coli |
| --- | --- |
| MNVHQRYAMGDSLAAKHGLWSEEQIDAAARVRRIAEEQGLETIRFSFPDQHGILRGKTLVASEALNCLDNGATITTTMLAKDTSHKTVFPVFQAGGGFGMSEMQGGADVVMLPDPTTFRVLPWAPTTGWVLCDLYFADGRPVQFATRNIYRAALQKLAARGYDYKAGLEVEFHVFKVVDSKMRPEHAGQPGEPPEVSLLSHGYQYLTEQRYDQMEPVLELIRRDVVALGLPLRSIEVEFGPSQCEFTFQPTVGLLPADLMVLFRAAVKQICRRHGYHATFMCRPRIPNVVSSGWHLHQSVVARDGGRNAFMSDSDVLSDFGRHYLAGLMTHARAATVFTTPTINGYKRYRSYSLAPDRAIWGRDNRGVMLRVLGGAGDKATRIENRVGEPAANPYLYMASQILSGLDGVDRALDPGPSADTPYETKADLLPKSLREAIFALRDDPFFRTALGDEFVDYYTFIKNAEIERFQAEVTEWEQREYFEMF | soluble |
| MNVSFSTSSLSVSNSRTRLISFRETEHGDQKSSEEWKTSTKLEALGSMEGELAHLLSTCKPETLNHNKTELSGFRNLFARFLRAKPTVDWSKIEPLPEGAIRPYKSLGHVVDKELIASQLRKLVVVKLNGGLGTSMGCKGPKSVISVRNDLTFLDLTMQQIQTLNKTYGVDVPLVLMNSFNTNEDTQKVLKKYANVKVSVHTFSQSQYPRINRETLLPIVKSLEADDNECWYPPGHGNFYEAFHNSGLLDKFLADGKEYCFLSNIDNMGATVDLSILNFVLNPSPDQTAPEFLMEVTDKTRADVKGGTLIQYEGRLMLLEIAQVPKDYVDEFKSISKFRIFNTNNLWAKLDAMRKIVVENKLEMEVIVNPKHLDRGLDVIQLETAAGAAIKSFSGAVGVNVPRSRFLPVKKTSDLLLLMSNLYDIDNGSLTLSHQRSFPTTPLVKLGSSFDKVKDYLGRFNGIPDLLELDHLTVSGDVWFGKDVSLKGTVIIIANHGDRIDIPPGSILENKIVSGNLRILEH | not soluble |
| MNVSVERYQRRKYVSQENSPMLYYVRQKSGTVRVMDVEKLADAIEANSSLTAGDVKHAIEAFVEQLRLSLTQGDKVKIDGLGTFHITLCSEGTEKEKDCTVRSIRKVNVRFVADKALHLVNASHTSTRSENNVEFVLASKGDTEGGNAGGGNTGGGGNSGGGGNSGGDEEAPDPTV | not soluble |
| MNVTEISAGQFQEMVQAGATRLHTNAEYVNSLNVFPVPDGDTGTNMNLSMTSGAKAVADSRSEKVGELAGALSKGLLMGARGNSGVILSQLFRGFSKQIPEVTTLNAKDLAAAFTHGVETAYKAVMKPVEGTILTVSREAARSGERKAKETDDCIEVMTAVVAGAKRALAKTPDLLPVLKEVGVVDSGGQGLLFIYEGFLEALSGEFLPTETYEPSPAEMDEMVNAEHHRGVSGHVATEDIKFGYCTEIMVRIGEGPTVDSAFDYETFRNYLNELGDSLLVVNDDEIIKVHVHTEHPGEVMNYGQKFGSLVKIKVDNMRLQHETLVERDAQQEALTEKVRVPFAVIAIAAGEGVQELFRSLGASYIISGGQTMNPSTEDILKAVKEVNAEQVIILPNNKNIFMAADQAAEVADVPVAVVPSKTISQGMTAMLAFNDQQSLEENKASMTEMLDSVVSGQVTTAVRDTTIDDVEIKKDDFLGMIDGKIVVSEADRFNASLDTLNRMIDEDTEIVTIIVGEDGSVEEAEKLIAILVSENDELETELHEGGQPVYPYLFSAE | not soluble |
| MNWYELYWQRITPLHLFLWPVSQLLILFQSVRRFLYRRAILTSIHLPVPIIIIDSITTDSPVKTSLIIQIANILKAAGLRPGIISRGYPDNHRPPTRVTISSHPHLTGEKSLLLTYHLRETCPVWIGYDRIETAKALLNAHKECNVLICDDGLQDLRLQRDFEAVIVDTSVINSGNGLIMPAGPLRDSFARLKHTDAVILAGHQRRIPDITDEIRTIHTRPQKEHFFNLSWPELTADAAGLAGKRIHAIVCDPDTQNFLDNLEFLKLTVTPRVFPENHHFIATDFQSDEAEIILIPEEDAVKCLSLHDDRIWVLQQEYRVDPGLREIILKKLREKFMDPKLLDILVCPLCKGSLIYKKDRLELICKADRLAYPIRDGIPVMLEDEARKLPDEEEIKLEHHHHHH | not soluble |
